{"source": "paper PMC5577506", "about": "“Intrinsic disorder in the partitioning protein KorB persists after co-operative complex formation with operator DNA and KorA” (Biochemical Journal, 2017)", "key": {"[1]": {"target": "KorA (Escherichia coli (expression host); …, UniProt P03052 1-101)", "test": "CD; 1 equivalent KorA; change at 280 nm; Buffer, salt, pH and temperature not given in the material; NMR at 800 MHz; SANS in 0, 65 or 100% D2O", "conditions": "protein: recombinant; tags: none; chain copies: 2; blunt (only one strand printed; complement implied)"}, "[2]": {"target": "KorB;KorA (Escherichia coli (expression host); …, UniProt P07674;P03052 1-358;1-101, |)", "test": "NMR (15N-1H TROSY), CD, SANS; ternary KorA/KorB/OAOB complex; Buffer, salt, pH and temperature not given in the material; NMR at 800 MHz; SANS in 0, 65 or 100% D2O", "conditions": "protein: recombinant;recombinant; tags: His-tag;none; chain copies: 2;2; blunt (only one strand printed; complement implied)"}, "[3]": {"target": "T1, KorB (Escherichia coli (expression host); …, UniProt P07674 1-358)", "test": "CD; 1 equivalent KorB; change at 280 nm; Buffer, salt, pH and temperature not given in the material; NMR at 800 MHz; SANS in 0, 65 or 100% D2O", "conditions": "protein: recombinant; tags: His-tag; chain copies: 2; blunt (only one strand printed; complement implied)"}, "[4]": {"target": "(NΔ150)KorB (Escherichia coli (expression host); …, UniProt P07674 151-358, del1-150)", "test": "SAXS, SANS; complex mass consistent with protein + DNA (67.5 kDa calculated); Buffer, salt, pH and temperature not given in the material; NMR at 800 MHz; SANS in 0, 65 or 100% D2O", "conditions": "protein: recombinant; tags: His-tag; chain copies: 2; blunt (only one strand printed; complement implied)"}, "[5]": {"target": "T1, KorB", "test": "NMR (15N-1H TROSY titration), SAXS, SANS; KorB dimer:OB 1:1; DBD and N-terminal peaks lost, CTD unaffected; Buffer, salt, pH and temperature not given in the material; NMR at 800 MHz; SANS in 0, 65 or 100% D2O", "conditions": "protein: recombinant; tags: His-tag; chain copies: 2; blunt (only one strand printed; complement implied)"}, "[6]": {"target": "T2, KorB (ParB family protein from the IncP1 plasmid RK2) (plasmid RK2 (IncP1), UniProt P07674 1-358)", "T2 construct": "KorB of plasmid RK2 (IncP1), 358 amino acid residues per subunit, homodimer; also called WT KorB; ^1H-KorB; source: E. coli BL21(λDE3), His-tagged fusion, purified as described previously [21]; also partially deuterated (~70% D2O M9 medium) and ^15N-labelled", "T2 sequence (looked up)": "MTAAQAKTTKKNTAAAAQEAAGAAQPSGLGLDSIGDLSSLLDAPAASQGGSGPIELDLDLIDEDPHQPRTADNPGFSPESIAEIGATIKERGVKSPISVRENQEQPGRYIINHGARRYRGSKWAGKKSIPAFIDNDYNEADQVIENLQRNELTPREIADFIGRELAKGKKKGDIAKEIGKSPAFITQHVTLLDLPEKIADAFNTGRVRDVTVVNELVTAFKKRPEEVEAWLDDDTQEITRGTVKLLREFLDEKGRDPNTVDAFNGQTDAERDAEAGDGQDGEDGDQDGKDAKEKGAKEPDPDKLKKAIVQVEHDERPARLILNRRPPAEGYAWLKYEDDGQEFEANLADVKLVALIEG", "test": "NMR titration; ^15N-^1H TROSY at 800 MHz of ^15N/^2D KorB (~0.1 mM dimer) titrated with unlabelled KorA (1 and 2 equivalents); 10 mM sodium phosphate pH 7.0, 100 mM NaCl, 0.1 mM EDTA, 30°C", "conditions": "both partners purified"}}, "data": [{"binder": "OAOB (dsDNA) DNA 1: GGACGAGTTTTAGCGGCTAAAGGTGTTGACGTGCGAGAAATGTTTAGCTAAACTTCG DNA 2: CGAAGTTTAGCTAAACATTTCTCGCACGTCAACACCTTTAGCCGCTAAAACTCGTCC", "values": [{"measurement": "binding result", "setting": "[1]", "result": "binds"}, {"measurement": "binding result", "setting": "[2]", "result": "binds"}, {"measurement": "binding result", "setting": "[3]", "result": "binds"}]}, {"binder": "OB (dsDNA) DNA 1: CGAGAATTTTAGCGGCTAAAAAGGGC DNA 2: GCCCTTTTTAGCCGCTAAAATTCTCG", "values": [{"measurement": "binding result", "setting": "[4]", "result": "binds"}, {"measurement": "binding result", "setting": "[5]", "result": "binds"}]}, {"binder": "KorA (repressor from the plasmid RK2) (natural protein, plasmid RK2 (IncP1), UniProt P03052 1-101, looked up, KorA of plasmid RK2; used as a dimer; the domain scheme runs from residue 1 to 101; also called ^1H-KorA; ^2D-KorA; source: E. coli BL21(λDE3), without a tag, purified as before [14]) MKKRLTESQFQEAIQGLEVGQQTIEIARGVLVDGKPQATFATSLGLTRGAVSQAVHRVWAAFEDKNLPEGYARVTAVLPEHQAYIVRKWEADAKKKQETKR", "values": [{"measurement": "stoichiometry N", "setting": "[6]", "result": "2 KorA dimers per KorB dimer"}]}]}
